Earlier results as cited in paper PMC10687467.

What was measured:
[1] = molecular target: LDL receptor (Homo sapiens) (UniProt P01130)
LRP-2 (Homo sapiens) = LRP-2 (Homo sapiens) (UniProt P98164)
ApoER2 (Homo sapiens) = ApoER2 (Homo sapiens) (UniProt Q14114)
[2] = molecular target: VLDL receptor (Homo sapiens) (UniProt P98155)

Chain of LRPAP1 (P30533 35-357): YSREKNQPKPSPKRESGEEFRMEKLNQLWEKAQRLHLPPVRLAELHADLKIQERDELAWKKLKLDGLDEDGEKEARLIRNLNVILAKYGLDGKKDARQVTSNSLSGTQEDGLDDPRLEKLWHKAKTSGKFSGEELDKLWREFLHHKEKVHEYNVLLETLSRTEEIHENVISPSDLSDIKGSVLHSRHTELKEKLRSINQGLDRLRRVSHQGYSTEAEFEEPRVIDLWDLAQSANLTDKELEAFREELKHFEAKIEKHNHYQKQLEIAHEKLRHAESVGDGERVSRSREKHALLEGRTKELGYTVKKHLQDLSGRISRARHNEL
Chain of ApoER2 (Homo sapiens) (Q14114 33-826): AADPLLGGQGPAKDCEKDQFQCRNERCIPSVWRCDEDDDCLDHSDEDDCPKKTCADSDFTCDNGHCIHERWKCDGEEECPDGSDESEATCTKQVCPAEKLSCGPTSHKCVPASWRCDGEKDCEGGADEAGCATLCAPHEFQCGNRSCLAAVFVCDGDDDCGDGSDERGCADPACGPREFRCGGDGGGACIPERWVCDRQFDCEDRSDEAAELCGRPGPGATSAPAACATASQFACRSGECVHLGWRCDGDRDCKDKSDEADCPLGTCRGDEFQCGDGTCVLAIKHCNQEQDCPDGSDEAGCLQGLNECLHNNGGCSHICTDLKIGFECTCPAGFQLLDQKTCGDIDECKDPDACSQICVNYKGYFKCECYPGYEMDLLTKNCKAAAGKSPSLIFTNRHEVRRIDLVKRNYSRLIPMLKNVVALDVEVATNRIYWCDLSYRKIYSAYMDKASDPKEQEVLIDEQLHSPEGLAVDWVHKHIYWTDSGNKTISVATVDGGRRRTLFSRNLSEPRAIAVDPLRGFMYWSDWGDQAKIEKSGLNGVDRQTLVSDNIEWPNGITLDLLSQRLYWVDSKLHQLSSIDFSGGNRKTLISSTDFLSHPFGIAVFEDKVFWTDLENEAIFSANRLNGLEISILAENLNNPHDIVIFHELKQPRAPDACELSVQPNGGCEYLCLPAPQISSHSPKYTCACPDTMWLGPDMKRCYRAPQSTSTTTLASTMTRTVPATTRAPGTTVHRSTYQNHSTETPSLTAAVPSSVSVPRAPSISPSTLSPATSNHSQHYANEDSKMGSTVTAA
Chain of LDL receptor (Homo sapiens) (P01130 22-788): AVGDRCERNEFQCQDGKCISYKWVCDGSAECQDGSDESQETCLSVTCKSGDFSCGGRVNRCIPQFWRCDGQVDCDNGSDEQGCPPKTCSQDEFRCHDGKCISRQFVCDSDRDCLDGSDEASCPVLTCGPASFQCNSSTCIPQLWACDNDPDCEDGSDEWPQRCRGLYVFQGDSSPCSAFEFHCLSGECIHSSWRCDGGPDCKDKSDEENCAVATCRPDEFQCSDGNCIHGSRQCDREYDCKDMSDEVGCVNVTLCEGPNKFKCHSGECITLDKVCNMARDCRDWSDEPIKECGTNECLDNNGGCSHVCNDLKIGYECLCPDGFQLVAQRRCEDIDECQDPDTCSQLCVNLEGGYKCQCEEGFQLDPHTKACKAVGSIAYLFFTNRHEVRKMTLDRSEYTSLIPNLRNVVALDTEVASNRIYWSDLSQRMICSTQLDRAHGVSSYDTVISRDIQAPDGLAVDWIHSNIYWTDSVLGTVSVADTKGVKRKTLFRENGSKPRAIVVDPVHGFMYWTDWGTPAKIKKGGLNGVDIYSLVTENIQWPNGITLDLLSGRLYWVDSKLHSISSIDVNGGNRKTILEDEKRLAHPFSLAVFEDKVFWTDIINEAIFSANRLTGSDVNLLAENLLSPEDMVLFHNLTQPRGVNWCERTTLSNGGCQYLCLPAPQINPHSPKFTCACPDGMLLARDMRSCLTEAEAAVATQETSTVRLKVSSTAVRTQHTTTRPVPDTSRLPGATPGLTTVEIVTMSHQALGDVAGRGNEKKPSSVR

LRPAP1 (from UniProt P30533)
Kd [1]: 250 nM | Kd (LRP-2 (Homo sapiens)): 8 nM | Kd (ApoER2 (Homo sapiens)): 5 nM | Kd [2]: 0.7 nM
